# Experimental data as given in patent publication US20240116985A1 (published 2024).
# Starred links: 1 amine or outer side, 2 acyl side, 3 side chain; linkers in the order of their positions; H or OH if unused. Positions of bridges follow the written chain, without caps; N, C: chain ends. Non-standard residues stand in square brackets, D forms with d. Primed or numbered codes have the meaning given here. (Pfbn)GA″ = [Pfbn]GA: (S)-2-amino-3-((carboxymethyl)((perfluorophenyl)methyl)amino)propanoic acid, O=C([C@H](CN(CC(=O)[*:3])Cc1c(F)c(F)c(F)c(F)c1F)N[*:1])[*:2]; (Pfbn)GA = (S)-2-amino-3-((carboxymethyl)((perfluorophenyl)methyl)amino)propanoic acid, O=C([C@H](CN(CC(=O)[*:3])Cc1c(F)c(F)c(F)c(F)c1F)N[*:1])[*:2]; PyrS2″ = (S)-3-amino-1-((pent-4-en-1-yloxy)carbonyl)pyrrolidine-3-carboxylic acid (stapling residue), C=CCCCOC(=O)N1CC[C@@](N[*:1])(C(=O)[*:2])C1; (Tfp)GA = [Tfp]GA: (S)-2-amino-3-((carboxymethyl)(3,3,3-trifluoropropyl)amino)propanoic acid, O=C([C@H](CN(CCC(F)(F)F)CC(=O)[*:3])N[*:1])[*:2]; B5(16) = 2-amino-2-(pent-4-en-1-yl)hept-6-enoic acid = 2,2-bis(4-pentenyl)glycine (stitching residue), C=CCCCC(CCCC=C)(N[*:1])C(=O)[*:2]; (Tfb)GA = (S)-2-amino-3-((carboxymethyl)(4,4,4-trifluorobutyl)amino)propanoic acid, O=C([C@H](CN(CCCC(F)(F)F)CC(=O)[*:3])N[*:1])[*:2]; (sBu)GA = [sBu]GA: (2S)-2-amino-3-(sec-butyl(carboxymethyl)amino)propanoic acid, CCC(C)N(CC(=O)[*:3])C[C@H](N[*:1])C(=O)[*:2]; PyrS2 = (S)-3-amino-1-((pent-4-en-1-yloxy)carbonyl)pyrrolidine-3-carboxylic acid, C=CCCCOC(=O)N1CC[C@@](N[*:1])(C(=O)[*:2])C1; (Bn)GA″ = [Bn]GA: (S)-2-amino-3-(benzyl(carboxymethyl)amino)propanoic acid, O=C([C@H](CN(CC(=O)[*:3])Cc1ccccc1)N[*:1])[*:2]; (Me)GA″ = [Me]GA: (S)-2-amino-3-((carboxymethyl)(methyl)amino)propanoic acid, CN(CC(=O)[*:3])C[C@H](N[*:1])C(=O)[*:2]; (Et)GA = [Et]GA: (S)-2-amino-3-((carboxymethyl)(ethyl)amino)propanoic acid, CCN(CC(=O)[*:3])C[C@H](N[*:1])C(=O)[*:2]; (Bn)GA = (S)-2-amino-3-(benzyl(carboxymethyl)amino)propanoic acid, O=C([C@H](CN(CC(=O)[*:3])Cc1ccccc1)N[*:1])[*:2]; (Me)GA = (S)-2-amino-3-((carboxymethyl)(methyl)amino)propanoic acid, CN(CC(=O)[*:3])C[C@H](N[*:1])C(=O)[*:2]; B5(3) = 2,2-bis(4-pentenyl)glycine (stitching residue), C=CCCCC(CCCC=C)(N[*:1])C(=O)[*:2]; Phe(2-Cl) = N[C@@H](Cc1ccccc1Cl)C(=O)O; Bta = N[C@@H](Cc1csc2ccccc12)C(=O)O; αAllylPro = C=CC[C@@]1(C(=O)O)CCCN1; tBuAla = CC(C)(C)C[C@H](N)C(=O)O; 3Thi = N[C@@H](Cc1ccsc1)C(=O)O; S8 = C=CCCCCCC[C@](C)(N)C(=O)O; PyrS2(4) = not defined here
# T1: full-length beta-Catenin (Uniprot ID P35222) (Homo sapiens (Human), UniProt P35222 1-781)
# T1 construct: Said to be full-length in the fluorescence polarization assay; also called bCat; B-Catenin
# T1 sequence: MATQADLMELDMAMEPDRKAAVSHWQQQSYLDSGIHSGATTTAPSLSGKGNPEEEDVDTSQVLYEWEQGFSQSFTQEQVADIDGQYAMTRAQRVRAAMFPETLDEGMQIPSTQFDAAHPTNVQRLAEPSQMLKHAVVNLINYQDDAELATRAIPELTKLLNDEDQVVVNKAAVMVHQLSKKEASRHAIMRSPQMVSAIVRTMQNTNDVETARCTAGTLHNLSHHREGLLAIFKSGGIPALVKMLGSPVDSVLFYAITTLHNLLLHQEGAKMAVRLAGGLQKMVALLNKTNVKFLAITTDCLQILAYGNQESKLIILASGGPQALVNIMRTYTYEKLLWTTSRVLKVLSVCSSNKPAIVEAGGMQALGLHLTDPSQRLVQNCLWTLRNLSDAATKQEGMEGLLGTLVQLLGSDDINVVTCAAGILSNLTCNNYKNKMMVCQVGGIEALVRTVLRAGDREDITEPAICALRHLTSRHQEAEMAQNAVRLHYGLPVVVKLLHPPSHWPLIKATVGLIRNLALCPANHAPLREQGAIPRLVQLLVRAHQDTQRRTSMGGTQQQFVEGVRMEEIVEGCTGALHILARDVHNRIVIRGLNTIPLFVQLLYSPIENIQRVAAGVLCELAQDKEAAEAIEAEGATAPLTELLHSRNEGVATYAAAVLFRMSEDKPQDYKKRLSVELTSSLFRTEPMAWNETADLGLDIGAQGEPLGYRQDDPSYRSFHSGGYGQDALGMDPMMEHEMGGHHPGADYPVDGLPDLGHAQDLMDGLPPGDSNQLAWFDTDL
# T2: B-cat-Halo (UniProt P35222 1-781)
# T2 sequence (looked up): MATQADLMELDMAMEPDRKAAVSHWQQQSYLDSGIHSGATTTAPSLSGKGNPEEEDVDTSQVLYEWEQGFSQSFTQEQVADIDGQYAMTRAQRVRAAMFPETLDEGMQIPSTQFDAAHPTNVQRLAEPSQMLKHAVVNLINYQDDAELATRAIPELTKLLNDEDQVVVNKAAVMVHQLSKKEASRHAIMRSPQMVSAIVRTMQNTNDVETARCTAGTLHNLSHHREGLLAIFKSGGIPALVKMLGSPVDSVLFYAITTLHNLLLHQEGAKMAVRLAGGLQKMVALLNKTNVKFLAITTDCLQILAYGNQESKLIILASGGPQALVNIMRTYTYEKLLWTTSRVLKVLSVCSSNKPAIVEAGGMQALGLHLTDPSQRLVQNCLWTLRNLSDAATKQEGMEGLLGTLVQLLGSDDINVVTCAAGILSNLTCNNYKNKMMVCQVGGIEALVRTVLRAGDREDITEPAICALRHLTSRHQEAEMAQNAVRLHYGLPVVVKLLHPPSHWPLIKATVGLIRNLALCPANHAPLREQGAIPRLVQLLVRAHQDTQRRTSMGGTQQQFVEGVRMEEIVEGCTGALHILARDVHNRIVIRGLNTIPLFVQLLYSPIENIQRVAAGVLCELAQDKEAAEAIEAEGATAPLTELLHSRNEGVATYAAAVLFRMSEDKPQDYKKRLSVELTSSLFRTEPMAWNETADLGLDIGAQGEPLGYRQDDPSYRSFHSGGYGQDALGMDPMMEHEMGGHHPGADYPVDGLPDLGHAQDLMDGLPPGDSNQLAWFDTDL
# Target: T1, full-length beta-Catenin (Uniprot ID …)
# Test: fluorescence polarization competition; peptide titrated against 10 nM full-length beta-catenin + 10 nM 5FAM-TCF4(10-53) probe
# Protocol: The plate was incubated protected from light for 60 minutes at 20° C. prior to read. Reads were performed on a CLARIOstar plate reader (BMG Labtech) in duplicate, and data were fitted to a 1:1 binding model with hill slope using an in-house script. All provided concentrations are final concentrations.
row,Binder,EC50 [µM]
1,"XDLXDEAAFTXFXH (not fully specified; Ac-PL3-Asp-Leu-B5-Asp-Glu-Ala-Ala-Phe-Thr-S8-Phe-BztA-His-NH2; N-terminal acetyl, C-terminal amide; non-natural PL3 (1), B5 (4), S8 (11), BztA (13); staples PL3-B5 and B5-S8 by olefin metathesis, Stapled peptide; Later-eluting staple isomer composition) [I-618]",0.135
2,"XDIXDRAAFQXFXQ (not fully specified; Ac-PL3-Asp-Ile-B5-Asp-Arg-Ala-Ala-Phe-Gln-S8-Phe-BztA-Gln-NH2; N-terminal acetyl, C-terminal amide; non-natural PL3 (1), B5 (4), S8 (11), BztA (13); staples PL3-B5 and B5-S8 by olefin metathesis, Stapled peptide; Later-eluting staple isomer composition) [I-614]",1.14
3,"XDLXDEAAFTXFXH (not fully specified; Ac-PL3-Asp-Leu-B5-Asp-Glu-Ala-Ala-Phe-Thr-S8-Phe-BztA-His-NH2; N-terminal acetyl, C-terminal amide; non-natural PL3 (1), B5 (4), S8 (11), BztA (13); staples PL3-B5 and B5-S8 by olefin metathesis, Stapled peptide; Earlier-eluting staple isomer composition) [I-617]",0.253
4,"XDLXDEAAFTXFXQ (not fully specified; Ac-PL3-Asp-Leu-B5-Asp-Glu-Ala-Ala-Phe-Thr-S8-Phe-BztA-Gln-NH2; N-terminal acetyl, C-terminal amide; non-natural PL3 (1), B5 (4), S8 (11), BztA (13); staples PL3-B5 and B5-S8 by olefin metathesis, Stapled peptide; Earlier-eluting staple isomer composition) [I-622]",0.23
5,"XDLXDEAAFTXFXQ (not fully specified; Ac-PL3-Asp-Leu-B5-Asp-Glu-Ala-Ala-Phe-Thr-S8-Phe-BztA-Gln-NH2; N-terminal acetyl, C-terminal amide; non-natural PL3 (1), B5 (4), S8 (11), BztA (13); staples PL3-B5 and B5-S8 by olefin metathesis, Stapled peptide; Later-eluting staple isomer composition) [I-623]",0.103
6,"XDIXDRAAFQXFXQ (not fully specified; Ac-PL3-Asp-Ile-B5-Asp-Arg-Ala-Ala-Phe-Gln-S8-Phe-BztA-Gln-NH2; N-terminal acetyl, C-terminal amide; non-natural PL3 (1), B5 (4), S8 (11), BztA (13); staples PL3-B5 and B5-S8 by olefin metathesis, Stapled peptide; Earlier-eluting staple isomer composition) [I-613]",1.63
7,"XDIXDEAAFQXFXP (not fully specified; Ac-PL3-Asp-Ile-B5-Asp-Glu-Ala-Ala-Phe-Gln-S8-Phe-BztA-Pro-NH2; N-terminal acetyl, C-terminal amide; non-natural PL3 (1), B5 (4), S8 (11), BztA (13); staples PL3-B5 and B5-S8 by olefin metathesis, Stapled peptide; Earlier-eluting staple isomer composition) [I-637]",5

# Target: T2, B-cat-Halo
# Test: cell-based or functional assay
row,Binder,NanoBRET Abs IC50 [µM]
1,"Ac-[αAllylPro]D[tBuAla][B5(3)]D[(sBu)GA]AAFN[PyrS2″][Phe(2-Cl)][Bta]Q-NH2 (staple 1-4, 4-11) [I-1623]",27.7
2,"Ac-[αAllylPro]D[tBuAla][B5(3)]D[(Et)GA]AAFN[S8][3Thi][Bta]Q-NH2 (staple 1-4, 4-11; also: later eluting staple isomer) [I-1628]",> 20
3,"Ac-[αAllylPro]D[tBuAla][B5(3)]D[(Me)GA″]AAFL[PyrS2″][3Thi][Bta]Q-NH2 (staple 1-4, 4-11) [I-1631]",30.1
4,"Ac-[αAllylPro]D[tBuAla][B5(3)]D[(Bn)GA″]AAFL[PyrS2″][3Thi][Bta]Q-NH2 (staple 1-4, 4-11) [I-1630]",5
5,"Ac-[αAllylPro]D[tBuAla][B5(3)]D[(Bn)GA]AAFN[PyrS2][3Thi][Bta]Q-NH2 (staple 1-4, 4-11) [I-1635]",20.6
6,"Ac-[αAllylPro]D[tBuAla][B5(3)]D[(Tfb)GA]AAFN[PyrS2][3Thi][Bta]Q-NH2 (staple 1-4, 4-11) [I-1634]",16.5
7,"Ac-[αAllylPro]D[tBuAla][B5(3)]D[(Et)GA]AAFN[PyrS2(4)][Phe(2-Cl)][Bta]Q-NH2 (staple 1-4, 4-11; not fully specified; printed as Ac-PL3-Asp-Npg-B5-Asp-[Et]GA-Ala-Ala-Phe-Asn-PyrS2-2C1F-BztA-Gln-NH2; reading uncertain) [I-1622]",> 20
8,"Ac-[αAllylPro]D[tBuAla][B5(3)]D[(Tfp)GA]AAFN[S8][3Thi][Bta]Q-NH2 (staple 1-4, 4-11) [I-1625]",29.3
9,"Ac-[αAllylPro]D[tBuAla][B5(16)]D[(Pfbn)GA]AAFN[PyrS2][3Thi][Bta]Q-NH2 (staple 1-4, 4-11) [I-1638]",14.5
10,"Ac-[αAllylPro]D[tBuAla][B5(3)]D[(Me)GA]AAFN[PyrS2][3Thi][Bta]Q-NH2 (staple 1-4, 4-11; also: earlier eluting staple isomer) [I-1636]",> 20
11,"Ac-[αAllylPro]D[tBuAla][B5(3)]D[(Pfbn)GA″]AAFN[S8][3Thi][Bta]Q-NH2 (staple 1-4, 4-11) [I-1624]",42.9
